Source: patent CN114349855A (BAISIS MEDICAL DIAGNOSIS SCIENCE AND TECH BEIJING LIMITED …, dated 2022)

Legend:
Experiment in all cases: ELISA, S protein coated at 2 μg/mL
新型冠状病毒Beta Spike蛋白 = molecular target: T1, 新型冠状病毒Beta Spike蛋白 (新型冠状病毒 (SARS-CoV-2) Beta突变株, UniProt P0DTC2 16-1213)
T1 construct: also called Beta的S蛋白

新型冠状病毒Gamma Spike蛋白 = molecular target: T2, 新型冠状病毒Gamma Spike蛋白 (新型冠状病毒 (SARS-CoV-2) Gamma突变株, UniProt P0DTC2 16-1213)
T2 construct: also called Gamma的S蛋白

新型冠状病毒Alpha Spike蛋白 = molecular target: T3, 新型冠状病毒Alpha Spike蛋白 (新型冠状病毒 (SARS-CoV-2) Alpha突变株, UniProt P0DTC2 16-1213)
T3 construct: also called Alpha的S蛋白

Measured: binding result

B1: 抗体 克隆号9A5F6 23F1 (antibody, V domains shown)
VH: QVQLVESGGGVVQPGRSLRLSCAASGFTFSSYAMYWVRQAPGKGLECVAGISYDGSNKYYADSVKGRFTISRENSKNTLYLQMNSLISEDTAVYYCARAEWDYWGQGTLVTVSS
VL: SYELTQPSSVSVSPGQTARITCSGDVLAKKYARWFQQKPGQAPVLVIYKDSERPSGIPERFSGSSSGTTVTLTISGAQVEDEADYYCYSAADNNLGVFGGGTKL
no binding (tested: 1 μg/mL): all assays above

B2: 抗体 克隆号7D7G3D4 (antibody, V domains shown)
VH: EVQLVESGGGLVQPGGSLRLSCAASGLTVSSNHMSWVRQAPGKGLEWVSIIYSGGSTYYADSVKGRFTISRDNSKNTLYLQMDSLRAEDTTVYYCARAQGGWELPGAGYYYFNGMDFWGQGTTVTVSS
VL: DIQMTQSPSSLSASVGDRVTITCRASQSISTYLNWYQQKPGKAPKLLIYAASNLQSGVPSRFSGSASGTDFTLTISSLQPEDFATYFCQQSYSTSFTFGPGTKVDIK
no binding (tested: 1 μg/mL): all assays above

B3: 抗体 克隆号9A5D9 22G3 (antibody, V domains shown)
VH: EVQLVESGGGLVKPGGSLRLSCAASGFTFSSYSMNWVRQAPGKGLEWVSSISRSSSYIYYADSVMGRFTISRDNAKNSLYLQMNSLRADDTAVYYCARDRGSGNYYVDGLDIWGQGTMVTVSS
VL: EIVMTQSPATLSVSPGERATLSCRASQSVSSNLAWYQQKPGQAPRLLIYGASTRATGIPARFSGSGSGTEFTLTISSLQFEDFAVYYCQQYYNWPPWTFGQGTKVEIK
no binding (tested: 1 μg/mL): all assays above
